Consider 55 molecules from patent US20110124556 (published 2011).

Broadly, the Kd is the concentration at which binding is half-saturated. Higher therefore signals weaker binding.

The target of this assay is human insulin receptor (HIR) (human, UniProt P06213). Put plainly: competition.

Non-standard residues stand in square brackets, D forms with d. No end group written: not given here. Tic = O=C(O)[C@@H]1Cc2ccccc2CN1; Ac6c = NC1(C(=O)O)CCCCC1; βturn = not defined here

In the case of WLEQERAWIWCEIQGSGCRA [S263 (D8B12)], the Kd was over 20000 nM. Then GIISQSCPESFYDWFAGQVSDPWWCW [S326 (G33)], with 590 nM.

AFYDWFAKK [S167] gave a Kd of over 2000 nM. As for SLEEEWAQIECEVWGRGCPSGSLDESFYDWFERQL [S560], the figure is 0.014 nM.

FHENFYDWFVRQVSKKXXSDGFYNAIELLS (not fully specified; listing feature) [S273] registered a Kd of 15 nM. This Kd is about 1100-fold higher than that of the molecule before. On to WFYDWFWE [S315], for which the dissociation constant Kd came to 68 nM. Against the preceding molecule, the Kd is about 4.5-fold higher.

Molecule Ac-SLEEEWAQIECEVYGRGCPSESFYDWFERQL (ends and bridges not checked) [S597] gave a Kd of 0.0085 nM. Against the preceding molecule, the Kd is about 8000-fold lower.

B1: S301 (peptide)
chain 1: XDWLQRNANFYDWFVAEL
chain 2: XDWLQRNANFYDWFVAEL
modifications: listing feature
B1 showed an equilibrium dissociation constant (Kd) of 640 nM.

B2: S443 (peptide)
chain 1: ESFYDWFERQLGGGGK
chain 2: WVQCEVYGRGCPS
In the case of B2, the affinity, expressed as Kd, was 170 nM.

B3: S231 (peptide)
chain 1: FHENFYDWFVRQVSKKGGGX
chain 2: FHENFYDWFVRQVSKKGGGX
modifications: listing feature
In turn, B3 returned a Kd of 270 nM. Molecule LEEEWAQIQREVWHSPASESFYDWFERQL [S595] yielded a Kd of 0.62 nM.

Molecule SLEEEWAQIEAEVWGRGAPSESFYDWFERQLG [S574] yielded a Kd of 0.0092 nM. Compared with the last molecule, the Kd is about 67-fold lower. As for SLEEEWAWVQCEVYGRGCPSESFYDWFERQL [S534], the figure is 0.01 nM; as for SLEEEWAQVECEVYGRGCPSESFYDWFERQL [S530], 0.008 nM. As for SLEEEWAQIECEVYGRGCPSESFYDWFERQL (not fully specified (N-terminus); ends and bridges not checked) [S557], the figure is 0.02 nM.

B4: S218 (peptide)
chain 1: AFYDWFAKKX
chain 2: AFYDWFAKKX
modifications: listing feature
B4 registered a Kd of 11000 nM.

B5: S439 (peptide)
chain 1: ESFYDWFERQLGGGGK
chain 2: QEWAWVQCEVYGRGCPS
For the molecule B5, the Kd was 46 nM. Then SLEEEWAQVECEVWGRGCPS [S548], with 4.1 nM; and SLEEEWAQIQCEVWGRCSESFYDWFERQL [S564], with 0.013 nM. Then FYDWFERQLG [S392], with 38 nM.

For the molecule NSFYEALRMLSSK [S121], binding was characterised by a dissociation constant (Kd) of 31 nM. In turn, SIEEEWAQIKCDVWGRGCPSY [S593] yielded a Kd of 2.2 nM.

B6: S229 (peptide)
chain 1: SDGFYNAIELLSX
chain 2: KHLCVLEELFWGASLFGYCSGKKX
modifications: not fully specified; listing feature
As to B6, binding was characterised by a dissociation constant (Kd) of 4.4 nM. Then SLEEEWAQIEEVWGRGPSESFYDWFERQLG [S569], with 0.15 nM; and SLEEEWAQVECEVYGRGCPSFYDWFERQL [S531], with 0.075 nM; and DPFYQGLWEWLRESGEE [S289], with over 2000 nM.

B7: S580 (peptide)
chain 1: SLEEEWAQVECEVYGRGC-βturn
chain 2: ESFYDWFERQLG
modifications: not fully specified (bridges); printed as SLEEEWAQVECEVYGRGC-βturn-ESFYDWFERQLG; ends and bridges not checked; also: chain 1 continues via βturn into chain 2 (C-N fusion)
The molecule B7 had a Kd of 0.012 nM. In other words, the picomolar range.

B8: S453 (peptide)
chain: GSLDESFYDWFERQLGKKKXXKEWLDQEWAWVQCEVYGRGCPSEE
modifications: not fully specified (residues 19, 20, 21); printed as GSLDESFYDWFERQLGKKK-Ald-17-Ald-KEWLDQEWAWVQCEVYGRGCPSEE; cysteine pairing not given here; also: two peptides (1-19 and 22-45) joined by linker 17 between the Ald group on K19 and an N-terminal Ald on the second peptide
Regarding B8, the equilibrium dissociation constant (Kd) stood at 0.57 nM. In the case of EGWDFYSYFSGLLASVT [S259], the Kd was 7700 nM. As for SIEEEWAQIKCDVWGRCSESFYDWFERQL [S562], the figure is 0.018 nM.

B9: S438 (peptide)
chain 1: ESFYDWFERQLGGGGK
chain 2: DQEWAWVQCEVYGRGCPS
Consider B9, for which the Kd amounted to 30 nM. As for NFYDWFVAELG [S243], the figure is 2000 nM; as for AHENFYDWFVRQVSKK [S113], 590 nM.

B10: S360 (peptide)
chain 1: XDWLQRNANFYDWFVAEL
chain 2: XDWLQRNANFYDWFVAEL
modifications: listing feature
For the molecule B10, the Kd stood at 990 nM. As for SLEEEWAQIQHELYGPAESESFYDWFERQL [S596], the figure is 0.045 nM; as for SLEEEWAQIEEVWGRPSESFYDWFERQLG [S570], 0.73 nM; as for SLEHEWAQVECEVYGRGCPSGSLDESFYDWFERQLG [S537], 0.044 nM. As for SLEEEWAQVECEVWGRGCPSGSLDESFYDWFERQLG [S541], the figure is 0.0078 nM. As for SLEEEWAQVECEVYGRGCPSGSLDESFYHWFERQLG [S542], the figure is 0.027 nM. Take SLELEWAQVECEVYGRGCPSGSLDESFYDWFERQLG [S539 (printed S519)]: the Kd is 0.098 nM.

B11: S456 (peptide)
chain 1: GSLDESFYDWFERQLGKK
chain 2: XKEWLDQEWAWVQCEVYGRGCPSEE
modifications: not fully specified; listing feature
With B11, the Kd was determined as 2.4 nM. As for FHENFADWFVRQVSKK [S220], the figure is over 2000 nM; as for SDGFYNAIELLS [S118], 24000 nM.

B12: S454 (peptide)
chain 1: GSLDESFYDWFERQLGKKKX
chain 2: EWLDQEWAWVQCEVYGRGCPSEEKX
modifications: not fully specified; listing feature
In turn, B12 had a Kd of 0.38 nM.

Consider SLEEEWAQVECEVYGRGCSGSLDESFYDWFERQLG [S549], for which the Kd is 0.013 nM.

B13: S527 (peptide)
chain 1: H[Ac6c]CAQE[dW]GSEL
chain 2: [Tic]QCSGSESFYDWFERQL
modifications: not fully specified; printed as H-Acy-CAQEwGSEL-Tic-QCSGSESFYDWFERQL; ends and bridges not checked
Regarding B13, the affinity, expressed as Kd, was 2.4 nM.

With SLEEEWAQIEEVWGRGSESFYDWFERQLG [S571], the Kd turned out to be 1.8 nM. As for HPTSKEIYAKLLK [S122], the figure is 93 nM; as for GSLDESFYDWFERQLGKKKS [S373], 120 nM; as for EHWNTVDPFYFTLFEWLRESG [S177], 27000 nM.

As to FHENFYDWFVRAVSKK [S107], binding was characterised by a dissociation constant (Kd) of 1000 nM. HHHHHHKSLEEEWAQVECEVYGRGCPSGSLDESFYDWFERQLG [S524] showed a Kd of 0.011 nM.

B14: S379 (peptide)
chain 1: GSLDESFYDWFERQLGKKKX
chain 2: GSLDESFYDWFERQLGKKKX
modifications: not fully specified; listing feature
B14: the Kd is 56 nM.

For the molecule RGTRSDPFYHKLSELLQGH [S368], the Kd was over 20000 nM.

B15: S442 (peptide)
chain 1: ESFYDWFERQLGGGGK
chain 2: AWVQCEVYGRGCPS
Molecule B15 showed a Kd of 160 nM.
